{
  "source": "patent US20220135694A1",
  "about": "“NOVEL CD40-BINDING ANTIBODIES” (LAVA THERAPEUTICS B.V., priority 2019, published 2022)",
  "key": {"[1]": {"target": "T1, human CD40 (CD40-transfected HEK293T cells) (Homo sapiens, UniProt P25942)", "T1 construct": "expressed in transfected cells; host or cells: HEK293T", "T1 sequence (P25942 21-277)": "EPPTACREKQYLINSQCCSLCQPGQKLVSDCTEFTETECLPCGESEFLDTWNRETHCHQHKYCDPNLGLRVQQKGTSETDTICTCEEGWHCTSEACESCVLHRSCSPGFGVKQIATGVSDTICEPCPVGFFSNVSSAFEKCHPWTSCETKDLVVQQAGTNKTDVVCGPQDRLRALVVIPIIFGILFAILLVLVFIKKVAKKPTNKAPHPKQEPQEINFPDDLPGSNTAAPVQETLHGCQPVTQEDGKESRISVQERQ", "experiment": "Bispecific VHH binding to CD40-transfected HEK293T cells, anti-llama IgG flow cytometry", "conditions": "1 μM; FIG. 5", "experimental": "The embryonic kidney cell line HEK293T, either wildtype (WT) or transfected with human CD40, was grown in complete DMEM.\nTo assess VHH binding, cells were incubated with V19S76K-5C8 (1 μM) or medium control for 30 minutes at 37° C. Bound VHH was detected by incubation with FITC-conjugated goat-anti-llama IgG-heavy and light chain antibodies (A160-100F, Bethyl Laboratories Inc., Montgomery, Tex., USA) for 20 minutes at 4° C.\n(§1) After 48 hours, cells were analyzed by flow cytometry as described in Example 2."}, "[2]": {"target": "T2, Vγ9Vδ2+ cells (Homo sapiens, UniProt A0JD36)", "T2 construct": "endogenous in cells; host or cells: healthy donor-derived, expanded Vγ9Vδ2-T cell lines", "T2 sequence (A0JD36 20-115)": "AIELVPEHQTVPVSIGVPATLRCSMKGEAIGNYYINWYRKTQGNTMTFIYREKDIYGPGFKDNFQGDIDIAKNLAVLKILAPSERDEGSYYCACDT", "experiment": "Bispecific VHH binding to Vγ9Vδ2-T cell lines, flow cytometry, non-linear regression", "conditions": "FIGS. 6A and B, read-out: apparent Kd", "experimental": "The CLL-derived cell line CII was grown in complete IMDM. Purified Vγ9Vδ2-T cell lines were generated as described previously (de Bruin et al. (2017), Oncoimmunology 7(1): e1375641). In short, Vδ2^+-T cells were isolated from healthy donor (HD) PBMCs using FITC-conjugated anti-Vδ2 TCR (2257030, Sony, San Jose, Calif.) in combination with anti-mouse IgG microbeads (Miltenyi Biotec, Bergisch Gladbach, Germany) and cultured weekly with irradiated feeder mix consisting of PBMCs from 2 HDs, JY cells, IL-7 (10 U/mL), IL-15 (10 ng/mL, R&D Systems) and phytohaemagglutinin (PHA; R30852801, Thermo Fisher Scientific).\nPurity of Vγ9Vδ2-T cell lines was maintained at >90%.\nVHH binding was tested as described in Example 6.\nas §1"}, "[3]": {"system": "CD40-transfected HEK293T cells", "experiment": "Cytotoxicity assay: CD40-transfected HEK293T target cells with Vγ9Vδ2-T cells", "type": "cell-based, human", "experimental": "HEK293T cells, either wildtype (WT) or transfected with human CD40, were grown as described in Example 2. Vγ9Vδ2-T cells were grown as described in Example 7.\nThe cytotoxicity experiment, viability measurement and flow cytometry were performed as described in Example 12."}, "[4]": {"system": "Vγ9Vδ2-T cells from CLL patients", "experiment": "Cytokine and degranulation assay: autologous Vγ9Vδ2-T cells from CLL patients", "type": "cell-based, human", "conditions": "10 nM, overnight with autologous CLL cells", "experimental": "PBMCs from CLL patients were obtained, cryopreserved and thawed as described in Example 3.\nCLL PBMCs were partially depleted of CD19^+ CLL cells using magnetic beads (130-050-301, Miltenyi Biotec. ±50% of the PBMCs were CD19^+ after CD19 depletion). PBMCs were then cultured overnight with V19S76K-5C8 (10 nM) or medium control in the presence of Brefeldin A, GolgiStop and anti-CD107a to measure cytokine production and degranulation as described in Example 11. In contrast to Example 11, surface staining included PE-conjugated anti-Vγ9-TCR (2256535, Sony) and FITC-conjugated goat-anti-Ilama IgG-heavy and light chain antibodies (A160-100F, Bethyl Laboratories Inc.)"}, "[5]": {"system": "Vγ9Vδ2-T cells present in the bone marrow of MM patients", "experiment": "Activation of Vγ9Vδ2-T cells in bone marrow mononuclear cells from MM patients", "type": "cell-based, human", "conditions": "10 nM, overnight", "experimental": "FIG. 17: V19S76K-5C8 is active against primary multiple myeloma. (A) Example of CD40 expression on primary MM cells, as detected using anti-CD40 PE antibody, clone MAB89, Beckman Couter, IM1936U. Representative histograms of 4 donors (B) Bone marrow of MM patients was cultured overnight in the presence or absence of healthy donor-derived Vγ9Vδ2-T cells in a 1:1 (Vγ9Vδ2-T:plasma cell) ratio in the absence or presence of V19S76K-5C8 (10 μM or 10 nM). Live plasma cells were quantified by flow cytometry using counting beads (n=5). (C, D) Mononuclear cells from the bone marrow of MM patients were cultured overnight with V19S76K-5C8 (VHH; 10 nM), aminobisphosphonate (ABP; 10 μM zoledronic acid (positive control)) or medium control in the presence of brefeldin, monensin and anti-CD107a to measure (C) cytokine production and (D) degranulation by flow cytometry (n=6). Data are presented as mean and SEM. *P<0.05, **P<0.01. (B-D: repeated-measures one-way ANOVA followed by Dunnett's post hoc test compared to condition without antibody).\nSimilarly, Vγ9Vδ2-T cells present in bone marrow mononuclear cells from MM patients degranulated after culture with the bispecific VHH V19S76K-5C8 (FIG. 17D)."}, "[6]": {"system": "MM.1s cells", "type": "in vivo, mouse", "experimental": "FIG. 18: The bispecific […] VHH prolongs survival in vivo. Immunodeficient NSG mice were irradiated on day −1 and grafted (i.v.) with 2.5*10^6 MM.1s cells on day 0. Mice received PBS or human Vγ9Vδ2-T cells (1*10^7 cells; both i.v.) on days 7, 14 and 21 followed by PBS or V19S76K-5C8 (VHH; 5 mg/kg; both i.p.) twice weekly starting on day 9. (A) Schematic overview of treatment schedule. (B) Kaplan-Meier analyses of mouse survival (control: n=6; V19S76K-5C8 (VHH): n=6, Vγ9Vδ2-T cells: n=8, Vγ9Vδ2-T cells+V19S76K-5C8 (VHH): n=8). CD40 expression on MM.1s cells (human CD45^+CD38^+ cells) in the (C) bone marrow (BM) and (D) plasmacytomas at the time of sacrifice. (E) Body weight after 7 weeks of treatment relative to individual body weight at time of tumor injection. **P<0.01, ***P<0.001. Data are presented as mean and SD. (B: Mantel-Cox logrank test followed by Holm-Sidak's post hoc test, C: one-way ANOVA followed by Dunnett's post hoc test compared to control mice, D: unpaired t-test).\nTo study the effects of the bispecific VHH on tumor growth in vivo, immunodeficient NSG mice were injected with cells of MM.1s, a human multiple myeloma cell line. The tumor cells were allowed to grow out and engraft for 1 week before mice received the first of three weekly i.v. injections with either human Vγ9Vδ2-T cells or PBS, followed by twice weekly i.p. injections with V19S76K-5C8 or PBS (FIG. 18A)."}},
  "data": [
    {"molecule": "V19S76K-5C8: tag-less bispecific anti-CD40-anti-Vγ9Vδ2-TCR VHH, SEQ ID NO:23 (protein, antibody sequence) VHH: QVQLQESGGGLVQAGGSLRLSCAASGRTFGRSAMGWFRQAPGKEREFVAAIGTRGGSTKYADSVKGRFTISTDNAKNTVYLQMDSLKPEDTAVYRCAVRGPGYPSAAIFQDEYHYWGQGTQVTVSSGGGGSEVQLVESGGGLVQAGGSLRLSCAASGRPFSNYAMGWFRQAPGKEREFVAAISWSGGSTSYADSVKGRFTISRDNAKNTVYLQMNSPKPEDTAIYYCAAQFSGADYGFGRLGIRGYEYDYWGQGTQVTVSS", "values": [
      {"measurement": "binding to CD40-expressing HEK293T cells", "setting": "[1]", "result": "binds to the CD40-expressing HEK293T cells"},
      {"measurement": "Kd", "setting": "[2]", "result": 1.2, "unit": "nM"},
      {"measurement": "lysis of CD40-transfected HEK293T cells", "setting": "[3]; overnight with Vγ9Vδ2-T cells, 1:1 ratio, FIG. 12", "result": "strongly enhanced"},
      {"measurement": "lysis of either WT or CD40-transfected HEK293T cells", "setting": "[3]; without Vγ9Vδ2-T cells", "result": "did not induce lysis"},
      {"measurement": "production of IFN-γ, TNF-α and IL-2 by Vγ9Vδ2-T cells from CLL patients", "setting": "[4]; FIG. 15A-C", "result": "produced the cytokines IFN-γ"},
      {"measurement": "Vγ9Vδ2-T cell degranulation (CD107a expression)", "setting": "[4]; FIG. 15D", "result": "induced Vγ9Vδ2-T cell degranulation"},
      {"measurement": "production of IFN-γ and TNF-α by bone marrow Vγ9Vδ2-T cells", "setting": "[5]; FIG. 17C", "result": "triggered to produce the pro-inflammatory cytokines IFN-γ and TNF-α"},
      {"measurement": "degranulation of bone marrow Vγ9Vδ2-T cells", "setting": "[5]; FIG. 17D", "result": "degranulated"},
      {"measurement": "median overall survival", "setting": "[6]; V19S76K-5C8 5 mg/kg i.p. twice weekly plus human Vγ9Vδ2-T cells i.v., control group 47 days, FIG. 18B", "result": 80, "unit": "days"},
      {"measurement": "overall survival", "setting": "[6]; V19S76K-5C8 alone, without Vγ9Vδ2-T cells, FIG. 18B", "result": "Neither V19S76K-5C8 alone or the Vγ9Vδ2-T cells alone significantly improved overall survival"},
      {"measurement": "overall survival versus control group", "setting": "[6]; V19S76K-5C8 plus Vγ9Vδ2-T cells, FIG. 18B", "result": "lived significantly longer"},
      {"measurement": "CD40 expression on malignant cells in the bone marrow versus control mice", "setting": "[6]; V19S76K-5C8 plus Vγ9Vδ2-T cells, at time of sacrifice, FIG. 18C", "result": "significantly lower"},
      {"measurement": "CD40 expression on malignant plasma cells in plasmacytomas", "setting": "[6]; V19S76K-5C8 plus Vγ9Vδ2-T cells, at time of sacrifice, FIG. 18D", "result": "A similar trend was observed"}
    ]}
  ]
}
